Results on 18 sequences are retold here after the DeepSol protein solubility set.

A short description of this data set: soluble on expression in E. coli; label from the status in PepcDB or PDB records.
As to “GVSVDARIAKNVEEFLAAAQEINPSYHLISGYRSVAYQTELYNSYVQQEMADDPTLTESQAEKKVQTYSQPPGASEHQTGLAIDMSTVDSLDEADPATVAKVKKIAPKYGFVLRFPDGKTSSTGVGYEDWHFRYVGKESAEYMTEHNLTLEEYLVLLKEKTK”, the “soluble on expression in E. coli” value was “not soluble”.

Take “GVTKKLKISRTATCKGCKGLGGNEGSAKECSDCRGRGIKVRVIRMGPMVQQMQSHCDSCNGEGSTFLEKDRCKKCNGKKQVKEDEI”: the “soluble on expression in E. coli” value is “not soluble”.

In the case of “HDGIERELTIAVNNIIPGDLLVAFIRDFERQFTSTTLTVDLEVYNGCWDALYSKRADLVYGAPHAVPSSEGIISEPVGQMEWDFVVSPLHPLAAKRHPLENSELRHYPAVCIRDTSVNFPPMQAWLLEGQKPIFVPDFATAIALIE”, the “soluble on expression in E. coli” value is recorded as “not soluble”.

For the sequence “HDKVVVLEAKNGNVTFDHKKHAGVKGECKACHETEAGGKIAGMGKDWAHKTCTGCHKEMGKGPTKCGECHKK”, the “soluble on expression in E. coli” value is given as “soluble”.

With “HEHNISVTGGTDKIQYYLSANYLGQDGELRIGDEYSNRYTASAKINAQLSKIVSVGFNTRFIRSDYVQPTHLNESFFAEIGRQCWPTKPLYDPNGILYDDHVLQMQNGGEKQERNTWLYQQLNITVEPIKGWRLIGDLSYRYNTQYSHWDYLTVHQTGVDGKTKGNTWNNDSQVHEGTYASDYFNVNLYTDYAKTFAKSHNMKVLFGFQAEQNNYKDIAAEKLGVIYPGKPTINTSTGMDSNNQKVAPNVAGGHNRWATAGFFGRLNYDYLEKYLLEVNLRYDGSSRFRSDSRWGFFPSASVGWNIAREKFFLPVSKVVNTFKVRASYGSLGNQNTSSLYPTYSTIGTGTGSWIIDGTLANIAWAPSLVSYNLSWEKIRTWNAGVDFGLFNNRLTGSFDYYIRKTDDMVGPSEKLPVVLGTAVPSSNNTNLKTFGWELELMWKDRLNNGLNYSARFTLADSRTKITRYSNPSGLIDGFYAGKYVGEIWGYETIGIAQSDQEMAEHIGRLINGGQSNLGQDWKAGDIMYKDLNEDGKIDAGSRTLQDHGDLKRIGNSTPRYNVGLELAADWKGFDIRMFWQGTLKRDYFQGSYYFWGANGRQGPWFSTALKGHDDYFRNDEASPLGTNLNSYYPRPLFNTDKNQQSQTKYLQDASYLRLKNLQIGYSLPHNIVQKMGMQHLRIFASGENLFTITSLIDFFDPESIEGGSWGHGNVYPLSRTFSFGLNVTF”, the “soluble on expression in E. coli” value was “not soluble”.

For the sequence “HGTMEVPINRTYSCSKEGAESPKTPACQEAKRVGGTQAMYDWNGINQNPPGDNHQSVVPDGTLCGGGQAKFKGFNLARTDWPTTNIVPDAKGNFEFIYTATMPHATKYFKFYVTRNGWNPNQPLKWSDLEPFGTYNGNPPLDDKQRYHMTMKLPTGKTGRHIIYNVWKRSDSEEAFYSCSDVNFTN”, the “soluble on expression in E. coli” value is on record as “not soluble”.

“HHHHHHSKEELLKLTETVVTEYLNSGNANEAVNGVREMRAPKHFLPEMLSKVIILSLDRSDEDKEKASSLISLLKQEGIATSDNFMQAFLNVLDQCPKLEVDIPLVKSYLAQFAARAIISELVSISELAQPLESGTHFPLFLLCLQQLAKLQDREWLTELFQQSKVNMQKMLPEIDQNKDRMLEILEGKGLSFLFPLLKLEKELLKQIKLDPSPQTIYKWIKDNISPKLHVDKGFVNILMTSFLQYISSEVNPPSDETDSSSAPSKEQLEQEKQLLLSFKPVMQKFLHDHVDLQVSALYALQVHCYNSNFPKGMLLRFFVHFYDMEIIEEEAFLAWKEDITQEFPGKGKALFQVNQWLTWLETA”: the “soluble on expression in E. coli” value was “soluble”.

Regarding “HHHHHHSVFEDDLPFLEFTGSIVYSYDASDCSFLSEDISMSLSDGDVVGFDMEWPPLYNRGKLGKVALIQLCVSESKCYLFHVSSMSVFPQGLKMLLENKAVKKAGVGIEGDQWKLLRDFDIKLKNFVELTDVANKKLKCTETWSLNSLVKHLLGKQLLKDKSIRCSNWSKFPLTEDQKLYAATDAYAGFIIYRNLEILDDTVQR”, the “soluble on expression in E. coli” value is given as “soluble”.

For “HKEFAVTMRPTEASERCHLRGSYTLRAGESALELWGGPEPGTQLYDWPYRFLRRFGRDKVTFSFEAGRRCVSGEGNFEFETRQGNEIFLALEEAISAQKN”, the “soluble on expression in E. coli” value is “soluble”.

Take “HLVCPMSKSPYVDPHKSGHEIWEEFSMSFTPAVKEVVEFAKRIPGFRDLSQHDQVNLLKAGTFEVLMVRFASLFDAKERTVTFLSGKKYSVDDLHSMGAGDLLNSMFEFSEKLNALQLSDEEMSLFTAVVLVSADRSGIENVNSVEALQETLIRALRTLIMKNHPNEASIFTKLLLKLPDLRSLNNMHSEELLAFKVHP”: the “soluble on expression in E. coli” value is on record as “soluble”.

Consider “HMSSGNASWFQAIKAKKLNTPPPKFEGSGVPDNENMKPSQQHGYWRRQARFKPGKGGRCPVPDAWYFYYTGTGPAADMNWGDTQDGIVWMAAKGADTKSRSNQGTRDPDKFDQYPLRFSDGGPDGNFRWDFIPL”, for which the “soluble on expression in E. coli” value is listed as “soluble”.

Consider “HQYFFAKLQEQQNRYAKYGETAYNLEPNIKNGPGGLRDLQILLSISKRHFKIKKLAEGIGYGFITDKEYEELKYCQNFLWRVRFALHMLAGKPEERLSFDYQVKLAQFFGYQDQSHILAIEQFMKDYFKVIKRNRELNEMLLQWFNETIVYHQKQKIIRLDDEFQLSNRFIEVRNNRVFKQNPQSILKLFYWLVKRPDIEGVRASTIRLI”, for which the “soluble on expression in E. coli” value was “not soluble”.

For the sequence “HRQLLSRDTHGFNVTVTSTIPEDAGLGDQEALIMAAALAFAHDYEDVHTAPIKAKFADVCFQASQAATGRPHVRARFDSALRGLASDLNIVDYSDGSVTHFPHPLNTQSDYAAFVVIPPVGAEQTAEVERRQAFITSAEKAFGTDSLRVLPDARERVIEWLQAVHEVCGTDDVPTITEAANWLEFMENETQAAINAAQAIKSRRHAACFDIVSESQRNLESLYTITTTDAMLSQLCLSRGAVSAR”, the “soluble on expression in E. coli” value is recorded as “not soluble”.

With “HRRNATSLQLSRCANIADRTGLDALGGRRHSRRCPPPQRGLAAIKPLRQHRRRPVRSHIGGNQFADLPHQVDAFVHGKTDAVMLQPRQHAAKRGLRSIVRHFFIRQYRSLIIKRRAHTPGIRQLYRIAHCLRRPVLCGEPFYGFLFESNPLRLIEAV”, the “soluble on expression in E. coli” value was “not soluble”.

For “HSLFPIPRMGDSAAKIVSPQEALPGRKEPLVVAAKHHVNGNRTVEPFPEGTQMAVFGMGCFWGAERKFWTLKGVYSTQVGFAGGYTPNPTYKEVCSGKTGHAEVVRVVFQPEHISFEELLKVFWENHDPTQGMRQGNDHGSQYRSAIYPTSAEHVGAALKSKEDYQKVLSEHGFGLITTDIREGQTFYYAEDYHQQYLSKDPDGYCGLGGTGVSCPL”, the “soluble on expression in E. coli” value is “soluble”.

With “HYPKALDQLSEDRGYAFSYPTAAPCERLVWSISQSLMEGKEINALFDRINSSTKRDMVTKVSPKAPHTVVLVLGESARPDYMHSYGYPLENTPRLDSLLASGAAVQFDDVVSAKPNTQGSIAAMMSIGESRAGGKWYDDPMLIPLLRSAGYYTFWLSAQEKLGFAVQNVTAIAKLSDSTLFVFRGMDDVVLPNLMQRAEYQNLFEVVHLSGSHVSYQDRYPSEFGKFTSENLPSHHDESKDAVVAHYVNSLYYTDYILGEIERKYANEDAIIIYLSDHGQVLYDAPNNPNLVGHSFSQQGVSIPLFIYLSPSMRTKYPELIPRLQSIRSRRIMTDVLPYAIMGLLGIESPLYNPELDFWGTGYDEHRPRVIYSDDSSLVID”, the “soluble on expression in E. coli” value is given as “not soluble”.

Take “HYTSVPNIMKVIKPLFLDKLNQSFLDAYDDYTKLENLLTRIGKIKFFDPACGSGNFLIITYKELRRMEINIIKRLQELLGEYLYVPSVTLSQFYGIEIEDFAHDVAKLSLWIAEHQMNEELKNEVHNAVRPTLPLHTAGDIRCANAIRVEWTEVCPAQGSEEVYVFGNPPYLGSKKQNKEHKSDMLSIFGKVKNGKMLDYISAWFYFGAKYASTTNAKVAFVSTNSVTQGEQVSILWNELFKFGI”: the “soluble on expression in E. coli” value was “not soluble”.

For “IALGGGAAKGFAHIGVLKMLEANGLAPSVVAGTSAGSVVGALYASGMDSFKIQTKAVAMDESNIRDLRFFSGGLVQGQKLQNYVNELVGKRPIEKLNMPFGAIATRLEDGQRTMFVRGNVGEAVRASCSIPGVFEPVTIGAYHYVDGGITSPVPV”, the “soluble on expression in E. coli” value was “not soluble”.
